B1: SOAT2 (parent)
chain: SLGKQKVFIIRKSLLDELMEVQHF
B2: CDC25A (parent)
chain: KPIVPTDGKRVIVVFHCEFSSERG

Variants of: B1
Experiment: protein stability index of a GFP-peptide fusion (GPS, HEK-293T) (PSI 1-6); higher = more stable
Details: c terminus: a fixed tail appended
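Note: lentivirally expressed fusions sorted by FACS into six bins by GFP to DsRed ratio, PSI derived from sequencing read proportions per bin multiplied by bin number.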

Protein stability index, by site and new letter:
G3: L 2.29 | M 3.27 | W 2.5 | R 2.98 | H 3.41 | F 2.29 | E 1.94 | S 2.73 | P 1.76 | C 3.08 | A 2.12 | N 2.07 | I 3.27 | T 2.83 | K 1.74 | V 2.97 | D 2.12 | Y 2.76
L2: R 2.42 | D 1.4 | S 3.5 | N 2.58 | Y 2.69 | F 3.72 | M 2.25 | T 3.3 | V 3.51 | C 3.02 | A 2.94 | K 1.44 | E 1.75 | Q 2.21 | H 3.11
S1: T 4.03 | C 2.9 | R 1.94 | Y 1.34 | E 2.99 | K 2.94 | L 3.27 | Q 2.6 | F 1.92 | M 2.1 | A 2.41 | P 2.99 | N 2.68 | I 3.6 | V 2 | H 2
K4: L 2.54 | Q 1.96 | P 1.74 | I 2.17 | R 2.29 | C 2.88 | M 2.15 | D 1.91 | V 2.8 | N 1.78 | Y 2.8 | W 2.19 | T 2.4 | E 1.52 | A 1.55 | H 2.31 | S 2.25 | F 2.22
Q5: A 2.54 | L 3.31 | C 2.75 | E 2.04 | F 3.55 | H 2.05 | G 3.96 | K 2.63 | D 2.01 | I 2.44

Variants of: B2
Experiment: as above
Details: c terminus: a fixed tail appended

Protein stability index of substitutions, site by site:
F19: Y 1.89
S20: Q 1.71 | F 3.29 | K 2.76 | H 2.8 | T 2.79 | P 1.92 | G 2.51 | I 3.13 | A 1.96 | E 1.12 | N 1.95 | Y 2.42 | D 1.68 | C 2.23 | W 2.1 | V 1.7 | R 3.53 | L 2.5 | M 2.43
E22: V 2.03 | N 2.29 | M 2.29 | I 2.65 | D 2.61 | G 1.99 | W 2.99 | K 1.99 | Y 3.49 | L 3.4 | S 3.61 | Q 1.96 | A 2.39 | H 2.7 | P 2.64 | F 3.5 | T 2.75 | R 2.68 | C 2.52
S21: R 1.2 | K 1.9 | V 2.61 | I 1.42 | M 2.22 | A 2.27 | P 4.03 | F 1.97 | D 1.28 | N 2.46 | L 3.4 | T 3.26 | E 1.56 | C 3.38 | H 2.27
R23: K 2.67 | H 1.84 | L 2.44 | V 3.12 | Y 2.99 | G 1.6 | Q 2.61 | N 3.72 | F 3.05 | T 3.36 | M 2.92 | W 1.55 | I 3.36 | D 2.52 | C 2.82 | P 2.35 | E 2.14 | S 2.19
G24: K 1.44 | C 2.7 | P 2.66 | R 3.92 | W 3.51 | M 3.17 | D 2.09 | N 2.29 | E 1.93 | Y 2.74 | L 1.85 | I 4.86 | V 2.56 | A 1.29 | S 2.92 | H 3.36 | Q 3.67 | T 3.03
